The target of this assay is AVP V1A receptor (mouse) (UniProt Q62463). In words: cell-based or functional assay.
Chain of AVP V1A receptor (mouse) (Q62463 whole entry): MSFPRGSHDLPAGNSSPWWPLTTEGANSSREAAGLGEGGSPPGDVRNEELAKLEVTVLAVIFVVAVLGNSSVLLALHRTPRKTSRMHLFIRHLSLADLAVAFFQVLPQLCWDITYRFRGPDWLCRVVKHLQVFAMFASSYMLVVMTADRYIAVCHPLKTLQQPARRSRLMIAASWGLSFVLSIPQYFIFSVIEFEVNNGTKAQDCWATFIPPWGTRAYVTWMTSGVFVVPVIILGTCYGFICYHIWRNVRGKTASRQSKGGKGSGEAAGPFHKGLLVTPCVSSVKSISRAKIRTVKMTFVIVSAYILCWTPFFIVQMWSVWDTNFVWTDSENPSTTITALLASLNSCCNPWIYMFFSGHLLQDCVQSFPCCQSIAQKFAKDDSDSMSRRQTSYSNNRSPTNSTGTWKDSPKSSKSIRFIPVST

With “arginine vasopressin (from UniProt P01185 20-28) (peptide)”, the EC50 of contractile response, 2°-branch mesenteric artery, control mice is 0.57 nM; the EC50 of contractile response, 2°-branch mesenteric artery, sRA mice was found to be 15.9 nM; the EC50 of contractile response, abdominal aortic rings, control mice was 2.19 nM; the EC50 of contractile response, abdominal aortic rings, sRA mice was found to be 3.72 nM. Further, the Maximum Response (contraction), 2°-branch mesenteric artery, control mice worked out at 52.5%; the Maximum Response (contraction), 2°-branch mesenteric artery, sRA mice turned out to be 17.3%; the Maximum Response (contraction), abdominal aortic rings, control mice turned out to be 0.29 g; the Maximum Response (contraction), abdominal aortic rings, sRA mice was determined as 0.12 g.

Source of the values: patent US20150374698A1.
